This is an account of results in patent publication US9074002B2, “PTP1B inhibitors” (Cold Spring Harbor Laboratory, priority 2009, dated 2015).

Test [1] deals with T1, endogenous PTP1B under reducing conditions (Homo sapiens, UniProt P18031).
T1 construct: endogenous in cells; host or cells: 293T cells (transfected only with the scFv intrabody)
T1 sequence (P18031 1-435): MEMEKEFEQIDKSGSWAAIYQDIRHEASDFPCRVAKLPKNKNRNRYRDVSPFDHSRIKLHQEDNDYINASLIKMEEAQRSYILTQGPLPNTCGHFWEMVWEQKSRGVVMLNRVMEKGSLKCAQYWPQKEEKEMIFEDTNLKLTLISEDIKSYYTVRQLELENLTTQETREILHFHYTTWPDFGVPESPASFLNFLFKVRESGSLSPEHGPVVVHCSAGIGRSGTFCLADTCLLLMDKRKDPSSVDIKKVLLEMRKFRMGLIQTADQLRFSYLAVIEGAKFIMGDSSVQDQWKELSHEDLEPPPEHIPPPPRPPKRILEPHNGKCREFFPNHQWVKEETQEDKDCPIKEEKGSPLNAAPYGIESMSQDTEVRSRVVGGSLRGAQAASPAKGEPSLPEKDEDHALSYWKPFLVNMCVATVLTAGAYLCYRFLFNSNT
The test is described as follows: Intrabody interaction in 293T cells under reducing condition (NAC, TCEP) (Ni-NTA pull down / immunoprecipitation). It is filed as cell-based. The note with it: 20 mM NAC, lysis buffer with 2 mM TCEP, FIGS. 11, 12. On the procedure: (§1) One of the positive candidate scFvs (scFv45) was cloned in pcDNA3.2/V5-GW/D-TOPO expression vector and transiently expressed in mammalian cells as stable intracellular antibody (aka intrabody) (FIG. 10). To detect PTP1B-OX and scFv45 interaction in mammalian cells, scFv45 was overexpressed in 293T cells as described herein (See Example 4) and 48 hours post transfection the cells were serum-starved for 16 hours in growth medium (DMEM, low glucose) without serum (FBS), then incubated with 1 mM H2O2 (in growth medium without serum) for 5 minutes at 37° C. or treated with 20 mM NAC (in growth medium without serum) for 1 hour at 37° C. Cells treated with H2O2 were washed twice with cold (4° C.) PBS and lysed in lysis buffer (25 mM HEPES, pH 7.4, 150 mM NaCl, 0.25% Deoxychloate, 1% TritonX-100, 25 mM NaF, 10 mM MgCl2, 1 mM EDTA, 10% Glycerol, 0.5 mM PMSF, 10 mM Benzamidine, protease inhibitor cocktail). Cells treated with NAC were lysed with lysis buffer containing 2 mM TCEP to ensure a post-lysis reducing environment. Interaction between PTP1B and intrabody45 were tested by pulling down the protein complex from 1 mg of total cell lysate with Ni-NTA agarose or by immunoprecipitating PTP with anti-PTP1B (FG6). For the pull down experiment, Ni-NTA agarose beads were incubated with the lysates (both oxidized and reduced) at 4° C. Protein complex bound to the Ni-NTA agarose beads was pulled down and washed three times; first with lysis buffer containing 20 mM imidazole followed by two more washes with wash buffer (PBS, pH 7.4, 20 mM imidazole, 0.05% BSA, 0.05% Tween-20 and protease inhibitors). Applicant used 20 mM imidazole in the wash buffer to reduce the non-specific binding of proteins with the Ni-NTA agarose beads. The complex was eluted with wash buffer containing 500 mM imidazole with gentle shaking at 4° C. and the eluate was mixed with SDS sample buffer with DTT. For the immunoprecipitation experiments, 1 mg of total cell lystates (both oxidized and reduced) was incubated with anti-PTP1B antibody (FG6) at 4° C. The interacting protein complex was immunoprecipitated after incubating the lysate-antibody mixture with protein A/G Sepharose at 4° C. After immunoprecipitation, Sepharose beads were washed three times; first with lysis buffer followed by two more washes with wash buffer (PBS, pH 7.4, 0.05% BSA, 0.05% Tween-20 and protease inhibitors). The Sepharose beads were then heated at 90° C. in 2×SDS sample buffer with DTT. Proteins from the pulled down or immunoprecipitated complex were separated by SDS-PAGE. PTP was detected with anti-PTP1B antibody (FG6) and the intrabodies were detected with anti-HA (3F10)-HRP antibody [anti-HA (3F10)-HRP, Roche] by immunoblotting.
In the initial in vitro phosphatase screening assay using reversibly oxidized (with H2O2) recombinant PTP1B, Applicant found four different PTP1B-OX specific scFvs (scFv45, scFv57, scFv64 and scFv106) from the initial pool of 12 different scFvs. […] Applicant has also shown that scFv45, expressed as an intrabody in mammalian cells, can bind to endogenous PTP1B-OX but not endogenous PTP under reducing conditions. Further assessment was carried out to identify additional PTP1B-OX-specific intrabodies. Additional scFvs have been subcloned in pcDNA3.2/V5-GW/D-TOPO mammalian expression vector (FIG. 10) from their respective phagemid constructs. […]

Test [2] addresses T2, endogenous PTP1B-OX (Homo sapiens, UniProt P18031).
T2 construct: endogenous in cells; host or cells: 293T cells (transfected only with the scFv intrabody)
T2 sequence (P18031 1-435): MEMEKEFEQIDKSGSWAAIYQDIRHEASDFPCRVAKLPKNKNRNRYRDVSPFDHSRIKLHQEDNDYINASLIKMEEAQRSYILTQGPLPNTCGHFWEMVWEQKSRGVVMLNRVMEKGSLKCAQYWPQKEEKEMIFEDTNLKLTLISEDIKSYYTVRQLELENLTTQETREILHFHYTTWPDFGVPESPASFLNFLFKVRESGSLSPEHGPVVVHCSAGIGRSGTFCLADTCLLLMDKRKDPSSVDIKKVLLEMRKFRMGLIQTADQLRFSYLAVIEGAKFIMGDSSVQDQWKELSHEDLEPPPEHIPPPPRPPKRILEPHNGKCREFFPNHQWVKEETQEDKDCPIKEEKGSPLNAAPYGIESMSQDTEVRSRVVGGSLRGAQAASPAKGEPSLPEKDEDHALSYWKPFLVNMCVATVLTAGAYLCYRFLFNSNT
As to the kind of experiment: Intrabody interaction in 293T cells treated with H2O2 (Ni-NTA pull down / anti-PTP1B immunoprecipitation). It is filed as cell-based. The note with it: 1 mM H2O2 5 minutes, FIGS. 11, 12. The procedure:
as §1
In the initial in vitro phosphatase screening assay using reversibly oxidized (with H2O2) recombinant PTP1B, Applicant found four different PTP1B-OX specific scFvs (scFv45, scFv57, scFv64 and scFv106) from the initial pool of 12 different scFvs. […] Applicant has also shown that scFv45, expressed as an intrabody in mammalian cells, can bind to endogenous PTP1B-OX but not endogenous PTP under reducing conditions. Further assessment was carried out to identify additional PTP1B-OX-specific intrabodies. Additional scFvs have been subcloned in pcDNA3.2/V5-GW/D-TOPO mammalian expression vector (FIG. 10) from their respective phagemid constructs. After transient overexpression of these scFvs as intrabodies in 293T cells, the interaction between endogenous PTP1B and these intrabodies in both H2O2-treated cells and cells was observed under reducing condition (treated with NAC and lysed with lysis buffer containing TCEP). […] All can be used in the methods and compositions described herein. Additional scFvs, such as some or all of the 137 selected individual scFvs from the library, can be similarly tested by in vitro screening and/or by binding assay in mammalian cells.

“Also recorded” adds a separate entry of the source.

B1: scFv67: scFv, SEQ ID NO: 100 and 161 (protein)
scFv: MKKTAIAIAVALAGFATVAQAALTQPSSVSANPGGTVKITCSGSSSAYGYGWYQQKSPGSAPVTVIYNNNKRPSNIPSRFSGSKSGSTGTLTITGVQAEDEAVYFCGSEDSSTDAIFGAGTTLTVLGQSSRSSAVTLDESGGGLQTPGGALSLVCKASGFTFSSYDMGWVRQAPGKGLEYVAGITNDGRYASYGSAVDGRATISRDNGQSTVRLQLNNLRAEDTGTYYCARDDGSGWTGNTIDTWGHGTEVIVSSTSGQAGQHHHHHHGAYPYDVPDYAS
On to B1, for which the “binding of intrabody to endogenous PTP1B under reducing conditions” value in test [1] is “not in the presence of NAC and TCEP”. Further, the “binding of intrabody to endogenous PTP1B-OX” value in test [2] is recorded as “bound to endogenous PTP1B-OX strongly; also recorded: co-pulldown of PTP1B-OX in the presence of H2O2”.

B2: scFv102: scFv, SEQ ID NO: 130 and 162 (protein)
scFv: MKKTAIAIAVALAGFATVAQAALTQPSSVSANPGETVKITCSGGSGSYGWYQQESPGSAPVTVIYYNDKRPSDIPSRFSGSASGSTATLTIAGVRAEDEAVYFCGSWDSSTSAGIFGAGTALTVLGQSSRSSAVTLDESGGGLQTPGGGLSLVCKASGFSSSHGMGWMRQAPGKGLEFVAGIRSDGSSTAYGAAVDGRATITRDDGQSTVTLQLNNLRAEDTATYFCAKTNSYNSAGIIDAWGHGTEVIVSSTSGQAGQHHHHHHGAYPYDVPDYAS
On to B2, for which the “binding of intrabody to endogenous PTP1B under reducing conditions” value in test [1] is “not in the presence of NAC and TCEP”. In addition, in test [2], the “binding of intrabody to endogenous PTP1B-OX” value is “bound to endogenous PTP1B-OX strongly; also recorded: co-pulldown of PTP1B-OX in the presence of H2O2”.
